Data as given in PMC9482650, “Quantitative fragmentomics allow affinity mapping of interactomes” (Nature Communications, 2022).

Target: T1, ARHGEF11, O15085
T1 sequence (O15085 42-136, limits assumed, looked up): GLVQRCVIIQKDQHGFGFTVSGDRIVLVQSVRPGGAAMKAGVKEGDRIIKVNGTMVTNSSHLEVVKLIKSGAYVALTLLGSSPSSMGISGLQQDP
Experiment: holdup assay
Parameters: key: below the threshold = too weak to quantify, mostly under pKd 3.1 to 4
Details: plain residues with an end cap or a label only (N-terminal biotin on a linker: ado-ado)

Binder | pKd
PSVGSKKTVL [REELD1, A0A1B0GV85] | 4.2

Target: CASK, O14936
Experiment: holdup assay
Parameters: key: below the threshold = too weak to quantify, mostly under pKd 3.1 to 4
Details: plain residues with an end cap or a label only (N-terminal biotin on a linker: ado-ado)

Sequence of CASK, O14936 (O14936 487-570): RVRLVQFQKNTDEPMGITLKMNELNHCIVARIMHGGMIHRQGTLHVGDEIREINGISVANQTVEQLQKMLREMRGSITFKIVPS

Binder | pKd
PSVGSKKTVL [REELD1, A0A1B0GV85] | below the threshold

Target: T2, DFNB31_1, Q9P202
T2 sequence (Q9P202 135-233, limits assumed, looked up): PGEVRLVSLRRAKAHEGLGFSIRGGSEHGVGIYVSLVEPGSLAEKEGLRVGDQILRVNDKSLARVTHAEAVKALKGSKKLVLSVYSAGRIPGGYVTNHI
Experiment: holdup assay
Parameters: key: below the threshold = too weak to quantify, mostly under pKd 3.1 to 4
Details: plain residues with an end cap or a label only (N-terminal biotin on a linker: ado-ado)

Binder | pKd
PSVGSKKTVL [REELD1, A0A1B0GV85] | below the threshold

Target: T3, DFNB31_2, Q9P202
T3 sequence (Q9P202 274-371, limits assumed, looked up): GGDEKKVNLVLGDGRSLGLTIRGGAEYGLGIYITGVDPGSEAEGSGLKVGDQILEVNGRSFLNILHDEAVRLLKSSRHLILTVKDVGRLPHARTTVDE
Experiment: holdup assay
Parameters: key: below the threshold = too weak to quantify, mostly under pKd 3.1 to 4
Details: plain residues with an end cap or a label only (N-terminal biotin on a linker: ado-ado)

Binder | pKd
PSVGSKKTVL [REELD1, A0A1B0GV85] | below the threshold

Target: DLG1_2, Q12959
Experiment: holdup assay
Parameters: key: below the threshold = too weak to quantify, mostly under pKd 3.1 to 4
Details: plain residues with an end cap or a label only (N-terminal biotin on a linker: ado-ado)

Sequence of DLG1_2, Q12959 (Q12959 314-412): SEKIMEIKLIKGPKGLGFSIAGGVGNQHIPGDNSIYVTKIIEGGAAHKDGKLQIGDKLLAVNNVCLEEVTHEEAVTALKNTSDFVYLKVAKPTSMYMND

Binder | pKd
PSVGSKKTVL [REELD1, A0A1B0GV85] | 3.79

Target: DLG5_1, Q8TDM6
Experiment: holdup assay
Parameters: key: below the threshold = too weak to quantify, mostly under pKd 3.1 to 4
Details: plain residues with an end cap or a label only (N-terminal biotin on a linker: ado-ado)

Sequence of DLG5_1, Q8TDM6 (Q8TDM6 617-713): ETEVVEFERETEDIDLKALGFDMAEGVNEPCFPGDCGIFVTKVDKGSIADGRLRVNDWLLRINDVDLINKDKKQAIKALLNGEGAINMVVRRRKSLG

Binder | pKd
PSVGSKKTVL [REELD1, A0A1B0GV85] | below the threshold

Target: FRMPD2_1, Q68DX3
Experiment: holdup assay
Parameters: key: below the threshold = too weak to quantify, mostly under pKd 3.1 to 4
Details: plain residues with an end cap or a label only (N-terminal biotin on a linker: ado-ado)

Sequence of FRMPD2_1, Q68DX3 (Q68DX3 770-861): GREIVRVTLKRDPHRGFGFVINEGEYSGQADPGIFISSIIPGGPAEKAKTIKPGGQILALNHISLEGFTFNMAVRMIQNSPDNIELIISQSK

Binder | pKd
PSVGSKKTVL [REELD1, A0A1B0GV85] | below the threshold

Target: FRMPD3, Q5JV73
Experiment: holdup assay
Parameters: key: below the threshold = too weak to quantify, mostly under pKd 3.1 to 4
Details: plain residues with an end cap or a label only (N-terminal biotin on a linker: ado-ado)

Sequence of FRMPD3, Q5JV73 (Q5JV73 12-100): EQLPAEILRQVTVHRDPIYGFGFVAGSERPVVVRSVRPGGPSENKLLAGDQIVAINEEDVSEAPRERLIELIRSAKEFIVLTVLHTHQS

Binder | pKd
PSVGSKKTVL [REELD1, A0A1B0GV85] | below the threshold

Target: GIPC2, Q8TF65
Experiment: holdup assay
Parameters: key: below the threshold = too weak to quantify, mostly under pKd 3.1 to 4
Details: plain residues with an end cap or a label only (N-terminal biotin on a linker: ado-ado)

Sequence of GIPC2, Q8TF65 (Q8TF65 112-203): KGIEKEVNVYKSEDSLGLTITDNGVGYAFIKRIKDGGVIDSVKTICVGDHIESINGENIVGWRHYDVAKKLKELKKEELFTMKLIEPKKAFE

Binder | pKd
PSVGSKKTVL [REELD1, A0A1B0GV85] | below the threshold

Target: T4, GRIP1_3, Q9Y3R0
T4 sequence (Q9Y3R0 247-346, limits assumed, looked up): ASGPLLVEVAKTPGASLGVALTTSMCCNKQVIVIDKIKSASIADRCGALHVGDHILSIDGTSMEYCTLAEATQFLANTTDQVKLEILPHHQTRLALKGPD
Experiment: holdup assay
Parameters: key: below the threshold = too weak to quantify, mostly under pKd 3.1 to 4
Details: plain residues with an end cap or a label only (N-terminal biotin on a linker: ado-ado)

Binder | pKd
PSVGSKKTVL [REELD1, A0A1B0GV85] | below the threshold

Target: GRIP2_7, Q9C0E4
Experiment: holdup assay
Parameters: key: below the threshold = too weak to quantify, mostly under pKd 3.1 to 4
Details: plain residues with an end cap or a label only (N-terminal biotin on a linker: ado-ado)

Sequence of GRIP2_7, Q9C0E4 (Q9C0E4 934-1023): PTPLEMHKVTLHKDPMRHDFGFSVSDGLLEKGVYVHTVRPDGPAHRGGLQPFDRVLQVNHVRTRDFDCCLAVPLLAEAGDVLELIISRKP

Binder | pKd
PSVGSKKTVL [REELD1, A0A1B0GV85] | below the threshold

Target: Inadl_5, Q8NI35
Experiment: holdup assay
Parameters: key: below the threshold = too weak to quantify, mostly under pKd 3.1 to 4
Details: plain residues with an end cap or a label only (N-terminal biotin on a linker: ado-ado)

Sequence of Inadl_5, Q8NI35 (Q8NI35 673-780): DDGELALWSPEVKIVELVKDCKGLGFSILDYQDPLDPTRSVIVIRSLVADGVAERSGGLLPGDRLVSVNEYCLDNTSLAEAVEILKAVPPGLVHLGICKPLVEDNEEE

Binder | pKd
PSVGSKKTVL [REELD1, A0A1B0GV85] | below the threshold

Target: T5, LIN7C, Q9NUP9
T5 sequence (Q9NUP9 88-185, limits assumed, looked up): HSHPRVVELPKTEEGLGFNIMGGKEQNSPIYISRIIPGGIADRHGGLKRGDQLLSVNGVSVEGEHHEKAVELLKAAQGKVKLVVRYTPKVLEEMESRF
Experiment: holdup assay
Parameters: key: below the threshold = too weak to quantify, mostly under pKd 3.1 to 4
Details: plain residues with an end cap or a label only (N-terminal biotin on a linker: ado-ado)

Binder | pKd
PSVGSKKTVL [REELD1, A0A1B0GV85] | below the threshold

Target: T6, LNX2_3, Q8N448
T6 sequence (Q8N448 463-564, limits assumed, looked up): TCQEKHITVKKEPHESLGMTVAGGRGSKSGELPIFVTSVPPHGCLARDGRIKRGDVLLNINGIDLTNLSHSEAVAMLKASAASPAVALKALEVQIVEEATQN
Experiment: holdup assay
Parameters: key: below the threshold = too weak to quantify, mostly under pKd 3.1 to 4
Details: plain residues with an end cap or a label only (N-terminal biotin on a linker: ado-ado)

Binder | pKd
PSVGSKKTVL [REELD1, A0A1B0GV85] | below the threshold

Target: MAGI1_2, Q96QZ7
Experiment: holdup assay
Parameters: key: below the threshold = too weak to quantify, mostly under pKd 3.1 to 4
Details: plain residues with an end cap or a label only (N-terminal biotin on a linker: ado-ado)

Sequence of MAGI1_2, Q96QZ7 (Q96QZ7 456-580): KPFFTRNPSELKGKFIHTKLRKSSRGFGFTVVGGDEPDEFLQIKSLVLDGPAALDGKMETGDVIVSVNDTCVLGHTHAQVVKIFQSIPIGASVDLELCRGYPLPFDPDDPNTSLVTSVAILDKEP

Binder | pKd
PSVGSKKTVL [REELD1, A0A1B0GV85] | 3.56

Target: MAGI2_2, Q86UL8
Experiment: holdup assay
Parameters: key: below the threshold = too weak to quantify, mostly under pKd 3.1 to 4
Details: plain residues with an end cap or a label only (N-terminal biotin on a linker: ado-ado)

Sequence of MAGI2_2, Q86UL8 (Q86UL8 410-522): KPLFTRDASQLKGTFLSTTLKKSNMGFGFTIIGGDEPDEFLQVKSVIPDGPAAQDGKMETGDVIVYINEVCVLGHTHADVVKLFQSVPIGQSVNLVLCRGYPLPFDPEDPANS

Binder | pKd
PSVGSKKTVL [REELD1, A0A1B0GV85] | below the threshold

Target: MAGI2_4, Q86UL8
Experiment: holdup assay
Parameters: key: below the threshold = too weak to quantify, mostly under pKd 3.1 to 4
Details: plain residues with an end cap or a label only (N-terminal biotin on a linker: ado-ado)

Sequence of MAGI2_4, Q86UL8 (Q86UL8 772-865): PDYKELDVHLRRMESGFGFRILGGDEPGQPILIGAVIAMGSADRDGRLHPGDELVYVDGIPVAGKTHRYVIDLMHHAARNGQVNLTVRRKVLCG

Binder | pKd
PSVGSKKTVL [REELD1, A0A1B0GV85] | below the threshold

Target: MAST1, Q9Y2H9
Experiment: holdup assay
Parameters: key: below the threshold = too weak to quantify, mostly under pKd 3.1 to 4
Details: plain residues with an end cap or a label only (N-terminal biotin on a linker: ado-ado)

Sequence of MAST1, Q9Y2H9 (Q9Y2H9 962-1065): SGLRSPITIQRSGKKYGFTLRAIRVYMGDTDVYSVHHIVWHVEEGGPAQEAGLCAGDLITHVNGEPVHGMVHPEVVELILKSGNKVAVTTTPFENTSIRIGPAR

Binder | pKd
PSVGSKKTVL [REELD1, A0A1B0GV85] | 4.2

Target: T7, MPP2, Q14168
T7 sequence (Q14168 180-250, limits assumed, looked up): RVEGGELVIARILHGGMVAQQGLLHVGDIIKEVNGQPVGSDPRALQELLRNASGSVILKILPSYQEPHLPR
Experiment: holdup assay
Parameters: key: below the threshold = too weak to quantify, mostly under pKd 3.1 to 4
Details: plain residues with an end cap or a label only (N-terminal biotin on a linker: ado-ado)

Binder | pKd
PSVGSKKTVL [REELD1, A0A1B0GV85] | below the threshold

Target: T8, PARD3B_1, Q8TEW8
T8 sequence (Q8TEW8 196-299, limits assumed, looked up): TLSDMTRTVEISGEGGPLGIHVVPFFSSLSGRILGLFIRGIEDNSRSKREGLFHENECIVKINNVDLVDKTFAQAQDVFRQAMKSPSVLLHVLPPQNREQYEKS
Experiment: holdup assay
Parameters: key: below the threshold = too weak to quantify, mostly under pKd 3.1 to 4
Details: plain residues with an end cap or a label only (N-terminal biotin on a linker: ado-ado)

Binder | pKd
PSVGSKKTVL [REELD1, A0A1B0GV85] | 4.62

Target: T9, RADIL, Q96JH8
T9 sequence (Q96JH8 971-1071, limits assumed, looked up): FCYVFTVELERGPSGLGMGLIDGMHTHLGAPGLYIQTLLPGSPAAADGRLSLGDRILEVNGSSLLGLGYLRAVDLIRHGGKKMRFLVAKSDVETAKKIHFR
Experiment: holdup assay
Parameters: key: below the threshold = too weak to quantify, mostly under pKd 3.1 to 4
Details: plain residues with an end cap or a label only (N-terminal biotin on a linker: ado-ado)

Binder | pKd
PSVGSKKTVL [REELD1, A0A1B0GV85] | below the threshold

Target: T10, SIPA1L2, Q9P2F8
T10 sequence (Q9P2F8 945-1036, limits assumed, looked up): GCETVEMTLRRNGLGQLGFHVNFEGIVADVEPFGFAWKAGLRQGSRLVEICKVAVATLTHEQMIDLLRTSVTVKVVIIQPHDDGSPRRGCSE
Experiment: holdup assay
Parameters: key: below the threshold = too weak to quantify, mostly under pKd 3.1 to 4
Details: plain residues with an end cap or a label only (N-terminal biotin on a linker: ado-ado)

Binder | pKd
PSVGSKKTVL [REELD1, A0A1B0GV85] | below the threshold

Target: T11, SNTG2, Q9NY99
T11 sequence (Q9NY99 68-166, limits assumed, looked up): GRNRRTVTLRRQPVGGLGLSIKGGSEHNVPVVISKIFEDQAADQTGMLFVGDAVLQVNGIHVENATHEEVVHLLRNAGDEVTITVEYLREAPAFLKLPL
Experiment: holdup assay
Parameters: key: below the threshold = too weak to quantify, mostly under pKd 3.1 to 4
Details: plain residues with an end cap or a label only (N-terminal biotin on a linker: ado-ado)

Binder | pKd
PSVGSKKTVL [REELD1, A0A1B0GV85] | 3.66

Target: TJP1_2, Q07157
Experiment: holdup assay
Parameters: key: below the threshold = too weak to quantify, mostly under pKd 3.1 to 4
Details: plain residues with an end cap or a label only (N-terminal biotin on a linker: ado-ado)

Sequence of TJP1_2, Q07157 (Q07157 181-274): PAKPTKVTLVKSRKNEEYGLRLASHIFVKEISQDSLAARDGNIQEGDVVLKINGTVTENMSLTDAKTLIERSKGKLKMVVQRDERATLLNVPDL

Binder | pKd
PSVGSKKTVL [REELD1, A0A1B0GV85] | below the threshold

Target: TJP2_1, Q9UDY2
Experiment: holdup assay
Parameters: key: below the threshold = too weak to quantify, mostly under pKd 3.1 to 4
Details: plain residues with an end cap or a label only (N-terminal biotin on a linker: ado-ado)

Sequence of TJP2_1, Q9UDY2 (Q9UDY2 24-128): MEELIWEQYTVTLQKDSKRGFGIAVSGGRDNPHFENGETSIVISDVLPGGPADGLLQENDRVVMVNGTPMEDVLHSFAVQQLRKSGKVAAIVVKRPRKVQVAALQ

Binder | pKd
PSVGSKKTVL [REELD1, A0A1B0GV85] | 4.1

Target: T12, TJP3_3, O95049
T12 sequence (O95049 375-456, limits assumed, looked up): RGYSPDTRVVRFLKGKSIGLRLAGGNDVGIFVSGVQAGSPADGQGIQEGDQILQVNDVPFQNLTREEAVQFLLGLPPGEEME
Experiment: holdup assay
Parameters: key: below the threshold = too weak to quantify, mostly under pKd 3.1 to 4
Details: plain residues with an end cap or a label only (N-terminal biotin on a linker: ado-ado)

Binder | pKd
PSVGSKKTVL [REELD1, A0A1B0GV85] | below the threshold
